Measurements from US20220193132A1 (NATIONAL RESEARCH COUNCIL OF CANADA, published 2022).

Tests used:
[1] = target: T1, EGFRvIII, full length, overexpressed on glioblastoma cells (human, UniProt P00533 298-623); test: flow cytometry dose-response on U87MG-EGFRvIII cells, apparent Kd
T1 construct: Cells overexpress full length EGFRvIII (deletion of exons 2-7 of EGFR); Cell line (U87MG or DKMG) is named under assay; also called U87MG-EGFRvIII; U87vIII
Protocol: Prior to analysis, cells were plated such that they were not more than 80% confluent on the day of analysis. Unless otherwise stated, all media are kept are 4° C. and all incubations are performed on wet ice. Cells were washed in PBS, harvested by the addition of cell dissociation buffer (Sigma), centrifuged and resuspended in complete medium at a cell density of 2×10⁶ cells/mL. Fifty μL/well of cells were distributed in a polypropylene v-bottom 96 well plate and serial 1/3 dilutions of purified mAbs starting at 100 nM were added and incubated for 2 hours. […] Cells were washed and re-suspended in medium containing Propidium iodide to exclude dead cells from analysis. Samples were filtered through a 60 μm nylon mesh filter plate (Millipore, Ireland) to remove cell aggregates. Flow cytometry analyses were performed on 2,000 viable single-cells events gated on forward scattering, side scattering parameters and propidium iodide dye exclusion using a BD-LSRFortessa flow cytometer (Becton-Dickinson Biosciences, CA, USA) and a standard filter set using BD FACSDiva™ acquisition software, according to manufacturer's instructions.
Specific detection of antibody binding was calculated as the mean fluorescent intensity of binding to each primary antibody after background level subtraction of the mean fluorescent intensity of binding of mouse IgG control. The data were analyzed with GraphPad Prism v 6.0 software using one-site specific binding with Hill slope non-linear regression curve fit model to determine Bmax (maximum specific binding) and Kdₐₚₚ (concentration needed to achieve a half-maximum binding at equilibrium) for each mAb tested.

[2] = target: T2, EGFRvIII amino acid residues 15 to 37 with Arg33 to Ala mutation (human); test: yeast display flow cytometry, alanine scan
T2 construct: mutation is already in the entry
T2 peptide: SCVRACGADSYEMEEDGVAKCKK
Description: (§1) Assessment of the binding of anti-EGFRvIII mAbs to the fusion proteins expressed on yeast cell surface was done by flow cytometry analysis. Briefly, yeast cells were labeled with both the anti-hEGFRvIII mAb and chicken anti-Myc antibody, the latter being used to monitor the level of expression of the fusion protein. Following a wash step, binding of the primary antibodies is probed by a two-color indirect fluorescence labeling using secondary antibodies specific for mouse and chicken antibodies, respectively.
(§2) To further characterize mAb epitopes within the EGFRvIII 15-37 region, an alanine scan of this region was performed, and modified fragments were expressed at the surface of the yeast. […] The resulting peptides were expressed at the surface of the yeast and each anti-EGFRvIII mAbs was tested on the corresponding yeast mutant strain by flow cytometry analysis. Thus, this assay determined the contribution of each amino acid(s) in the monoclonal antibody binding.

[3] = target: T3, EGFRvIII amino acid residues 15 to 37 with Asp30 to Ala mutation (human); test: yeast display flow cytometry, alanine scan
T3 construct: mutation is already in the entry
T3 peptide: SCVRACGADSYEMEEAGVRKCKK
Description: as §1, §2

[4] = target: T4, EGFRvIII amino acid residues 15 to 37 with Gly31 to Ala mutation (human); test: yeast display flow cytometry, alanine scan
T4 construct: mutation is already in the entry
T4 peptide: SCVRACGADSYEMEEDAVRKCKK
Description: as §1, §2

[5] = target: T5, EGFRvIII amino acid residues 15 to 37 with Glu26 to Ala mutation (human); test: yeast display flow cytometry, alanine scan
T5 construct: mutation is already in the entry
T5 peptide: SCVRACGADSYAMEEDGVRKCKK
Description: as §1, §2

[6] = target: T6, EGFRvIII amino acid residues 15 to 37 with Cys35 to Ala mutation (human); test: yeast display flow cytometry, alanine scan
T6 construct: mutation is already in the entry
T6 peptide: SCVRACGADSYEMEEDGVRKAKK
Description: as §1, §2

[7] = target: T7, EGFRvIII amino acid residues 15 to 37 with Cys20 to Ala mutation (human); test: yeast display flow cytometry, alanine scan
T7 construct: mutation is already in the entry
T7 peptide: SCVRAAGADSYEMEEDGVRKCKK
Description: as §1, §2

[8] = target: wild type human EGFR, full length, overexpressed on U87MG cells (human, UniProt P00533 25-1210); test: cell-based or functional assay
[9] = target: T1, EGFRvIII, full length, overexpressed on …; test: cell-based or functional assay
[10] = target: T8, EGFRvIII amino acid residues 15 to 37 with Val32 to Ala mutation (human); test: yeast display flow cytometry, Myc-normalized;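 note: Anti-EGFRvIII monoclonal antibodies tested by flow cytometry on yeast displaying alanine-substituted fragments, two-color indirect fluorescence with anti-Myc signal tracking fusion protein expression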
T8 construct: mutation is already in the entry
T8 peptide: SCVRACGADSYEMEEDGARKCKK
Description: as §1, §2

[11] = target: T9, EGFRvIII amino acid residues 15 to 37 with Tyr25 to Ala mutation (human); test: yeast display flow cytometry, Myc-normalized;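 note: Anti-EGFRvIII monoclonal antibodies tested by flow cytometry on yeast displaying alanine-substituted fragments, two-color indirect fluorescence with anti-Myc signal tracking fusion protein expression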
T9 construct: mutation is already in the entry
T9 peptide: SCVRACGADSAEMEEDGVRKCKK
Description: as §1, §2

[12] = target: T10, EGFRvIII amino acid residues 15 to 37 with Lys34 to Ala mutation (human); test: yeast display flow cytometry, Myc-normalized;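 note: Anti-EGFRvIII monoclonal antibodies tested by flow cytometry on yeast displaying alanine-substituted fragments, two-color indirect fluorescence with anti-Myc signal tracking fusion protein expression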
T10 construct: mutation is already in the entry
T10 peptide: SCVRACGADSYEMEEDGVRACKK
Description: as §1, §2

[13] = target: T11, EGFRvIII amino acid residues 15 to 37 with Ser15 to Ala mutation (human); test: yeast display flow cytometry, Myc-normalized;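 note: Anti-EGFRvIII monoclonal antibodies tested by flow cytometry on yeast displaying alanine-substituted fragments, two-color indirect fluorescence with anti-Myc signal tracking fusion protein expression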
T11 construct: mutation is already in the entry
T11 peptide: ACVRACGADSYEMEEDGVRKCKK
Description: as §1, §2

[14] = target: T12, EGFRvIII amino acid residues 15 to 37 with Cys16 to Ala mutation (human); test: yeast display flow cytometry, Myc-normalized
T12 construct: mutation is already in the entry
T12 peptide: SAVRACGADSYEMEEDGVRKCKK
Description: as §1, §2

[15] = target: T13, EGFRvIII amino acid residues 15 to 37 with Gly21 to Ala mutation (human); test: yeast display flow cytometry, Myc-normalized
T13 construct: mutation is already in the entry
T13 peptide: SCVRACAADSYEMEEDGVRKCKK
Description: as §1, §2

[16] = target: T14, EGFRvIII amino acid residues 15 to 37 with Glu28 to Ala mutation (human); test: yeast display flow cytometry, Myc-normalized
T14 construct: mutation is already in the entry
T14 peptide: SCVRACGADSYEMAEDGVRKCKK
Description: as §1, §2

[17] = target: T15, EGFRvIII amino acid residues 15 to 37 with Lys37 to Ala mutation (human); test: yeast display flow cytometry, Myc-normalized
T15 construct: mutation is already in the entry
T15 peptide: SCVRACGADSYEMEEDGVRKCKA
Description: as §1, §2

[18] = target: T16, EGFRvIII amino acid residues 15 to 37 with Ser24 to Ala mutation (human); test: yeast display flow cytometry, Myc-normalized
T16 construct: mutation is already in the entry
T16 peptide: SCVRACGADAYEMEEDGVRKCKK
Description: as §1, §2

[19] = target: T17, EGFRvIII amino acid residues 15 to 37 with Val17 to Ala mutation (human); test: yeast display flow cytometry, Myc-normalized
T17 construct: mutation is already in the entry
T17 peptide: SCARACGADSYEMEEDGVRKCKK
Description: as §1, §2

[20] = target: T18, EGFRvIII amino acid residues 15 to 37 with Arg18 to Ala mutation (human); test: yeast display flow cytometry, Myc-normalized
T18 construct: mutation is already in the entry
T18 peptide: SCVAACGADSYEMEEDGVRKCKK
Description: as §1, §2

[21] = target: T19, EGFRvIII amino acid residues 15 to 37 with Glu29 to Ala mutation (human); test: yeast display flow cytometry, Myc-normalized
T19 construct: mutation is already in the entry
T19 peptide: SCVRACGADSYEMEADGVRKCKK
Description: as §1, §2

[22] = target: T20, EGFRvIII amino acid residues 15 to 37 with Lys36 to Ala mutation (human); test: yeast display flow cytometry, Myc-normalized
T20 construct: mutation is already in the entry
T20 peptide: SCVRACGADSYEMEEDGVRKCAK
Description: as §1, §2

[23] = target: T21, EGFRvIII amino acid residues 15 to 37 with Asp23 to Ala mutation (human); test: yeast display flow cytometry, Myc-normalized
T21 construct: mutation is already in the entry
T21 peptide: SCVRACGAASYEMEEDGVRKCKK
Description: as §1, §2

[24] = target: T22, EGFRvIII amino acid residues 15 to 37 with Met27 to Ala mutation (human); test: yeast display flow cytometry, Myc-normalized
T22 construct: mutation is already in the entry
Description: as §1, §2

[25] = target: T23, recombinant human EGFRvIII protein (extracellular domain), denatured (human, UniProt P00533 298-623); test: ELISA Exp 1, mAb supernatant
T23 construct: Same protein as m21 after 95 C for 5 min in PBS with 40 mM DTT (denatured, reduced); also called EGFRvIII Denatured
Protocol: (§3) Pre- and post-immune sera titers of animals were assessed by ELISA on recombinant EGFRvIII protein. Unless otherwise stated, all incubations were performed at room temperature. […] Microplates were washed three times in PBS and blocked for 30 min with PBS containing 1% bovine serum albumin (BSA, Sigma Cat #A7030). Blocking buffer was removed and 25 μl of serial dilutions of sera samples were added. […] After a 1-h incubation, microplates were washed 4 times and 25 μl of p-nitrophenyl phosphate (pNPP) substrate (Sigma-Aldrich Canada Co., Oakville, ON) at 1 mg/ml in carbonate buffer at pH 9.6 was added and further incubated for 30 min.
(§4) Antigens at 1-2 mg/ml were incubated at 95° C. for 5 min in PBS containing DTT at a final concentration of 40 mM. They were then incubated on ice for 5 min and diluted at their final coating concentration for ELISA purpose.
(§5) ELISA was performed as described above (serum titer determination) using 25 μl of mAb supernatant (Exp 1) or purified mAb at 1 μg/ml (Exp 2).

[26] = target: T24, recombinant human EGFRvIII protein (extracellular domain), native (human, UniProt P00533 298-623); test: ELISA Exp 1, mAb supernatant
T24 construct: also called hEGFRvIII
Protocol: as §3, §4, §5

[27] = target: T25, recombinant human wild type EGFR protein (extracellular domain), denatured (human, UniProt P00533 25-645); test: ELISA Exp 1, mAb supernatant
T25 construct: Same protein as m23 after 95 C for 5 min in PBS with 40 mM DTT (denatured, reduced); also called wt EGFR Denatured
Protocol: as §3, §4, §5

[28] = target: T26, recombinant human wild type EGFR protein (extracellular domain), native (human, UniProt P00533 25-645); test: ELISA Exp 1, mAb supernatant
T26 construct: also called wt EGFR; EGFR WT
Protocol: as §3, §4, §5

[29] = target: T23, recombinant human EGFRvIII protein …; test: ELISA Exp 2, purified mAb 1 ug/ml;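 note: ELISA of purified mAb binding to plate-coated antigen, native or heat/DTT-denatured, with pNPP substrate developed for 30 min and incubations at room temperature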
Protocol: as §3, §4, §5

[30] = target: T24, recombinant human EGFRvIII protein …; test: ELISA Exp 2, purified mAb 1 ug/ml;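 note: ELISA of purified mAb binding to plate-coated antigen, native or heat/DTT-denatured, with pNPP substrate developed for 30 min and incubations at room temperature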
Protocol: as §3, §4, §5

[31] = target: T25, recombinant human wild type EGFR …; test: ELISA Exp 2, purified mAb 1 ug/ml;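 note: ELISA of purified mAb binding to plate-coated antigen, native or heat/DTT-denatured, with pNPP substrate developed for 30 min and incubations at room temperature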
Protocol: as §3, §4, §5

[32] = target: T26, recombinant human wild type EGFR …; test: ELISA Exp 2, purified mAb 1 ug/ml;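 note: ELISA of purified mAb binding to plate-coated antigen, native or heat/DTT-denatured, with pNPP substrate developed for 30 min and incubations at room temperature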
Protocol: as §3, §4, §5

[33] = target: T27, EGFRvIII fragment amino acid residues 19 to 37, displayed on yeast (human); test: yeast surface display, flow cytometry
T27 construct: also called aa 19-37
T27 peptide: ACGADSYEMEEDGVRKCKK

T22 sequence (peptide, as listed by the source, change not shown): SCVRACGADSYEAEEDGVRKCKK

B1: F263-4E11 (antibody, V domains shown)
VH: DVQLQESGPGLVKPSQSLSLTCTVTGYSITSDYAWNWIRQFPGNKLEWMGYIGYNGRTSYNPSLKSRISITRDTSKNQFFLQLNYVTTEDTATFYCARLGRGFAYWGQGTLVTVSA
VL: DILMTQSPSSMSVSLGDTVSITCHASQGINSNIGWLLQKPGKSFKGLIYHGTNLEDGVPSRFSGSGSGTDYSLTISSLESEDFADYYCVQYAQFPYTFGGGTKLEIK
notes: Mouse hybridoma mAb
[1]
  Kd: 6.7 nM
[2]
  binding result: no binding (tested: 0-15% of wild-type binding)
[3]
  binding result: no binding (tested: 0-15% of wild-type binding)
[4]
  binding result: no binding (tested: 0-15% of wild-type binding)
[5]
  binding result: no binding (tested: 0-15% of wild-type binding)
[6]
  binding result: no binding (tested: 0-15% of wild-type binding)
[7]
  binding result: no binding (tested: 0-15% of wild-type binding)
[8]
  % survival (DM1 secondary-conjugate ADC surrogate assay, vs mouse IgG): > 98%
[9]
  % survival (DM1 secondary-conjugate ADC surrogate assay, vs mouse IgG): 54%
[10]
  % of binding vs wild-type fragment 15-37: 30.4%
[11]
  % of binding vs wild-type fragment 15-37: 83.3%
[12]
  % of binding vs wild-type fragment 15-37: 130%
[13]
  % of binding vs wild-type fragment 15-37: 94.9%
[14]
  % of binding vs wild-type fragment 15-37: 176%
[15]
  % of binding vs wild-type fragment 15-37: 180%
[16]
  % of binding vs wild-type fragment 15-37: 90.9%
[17]
  % of binding vs wild-type fragment 15-37: 191%
[18]
  % of binding vs wild-type fragment 15-37: 170%
[19]
  % of binding vs wild-type fragment 15-37: 148%
[20]
  % of binding vs wild-type fragment 15-37: 102%
[21]
  % of binding vs wild-type fragment 15-37: 75.3%
[22]
  % of binding vs wild-type fragment 15-37: 110%
[23]
  % of binding vs wild-type fragment 15-37: 58.4%
[24]
  % of binding vs wild-type fragment 15-37: 102%
[25]
  ELISA absorbance 405 nm: 1.39 A405
[26]
  ELISA absorbance 405 nm: 1.36 A405
[27]
  ELISA absorbance 405 nm: 0.029 A405
[28]
  ELISA absorbance 405 nm: 1.62 A405
[29]
  ELISA absorbance 405 nm: 0.997 A405
[30]
  ELISA absorbance 405 nm: 1.53 A405
[31]
  ELISA absorbance 405 nm: 0.001 A405
[32]
  ELISA absorbance 405 nm: 1.7 A405
[33]
  binding result: binds
